Experiment [1] has as its target T1, GFP-tagged SXM1 (Saccharomyces cerevisiae, UniProt Q04175 1-944).
T1 construct: Yeast GFP Fusion Collection strain; also called Yeast GFP fusion collection GFP(+)04, H9; not shown: GFP tag
T1 sequence (looked up): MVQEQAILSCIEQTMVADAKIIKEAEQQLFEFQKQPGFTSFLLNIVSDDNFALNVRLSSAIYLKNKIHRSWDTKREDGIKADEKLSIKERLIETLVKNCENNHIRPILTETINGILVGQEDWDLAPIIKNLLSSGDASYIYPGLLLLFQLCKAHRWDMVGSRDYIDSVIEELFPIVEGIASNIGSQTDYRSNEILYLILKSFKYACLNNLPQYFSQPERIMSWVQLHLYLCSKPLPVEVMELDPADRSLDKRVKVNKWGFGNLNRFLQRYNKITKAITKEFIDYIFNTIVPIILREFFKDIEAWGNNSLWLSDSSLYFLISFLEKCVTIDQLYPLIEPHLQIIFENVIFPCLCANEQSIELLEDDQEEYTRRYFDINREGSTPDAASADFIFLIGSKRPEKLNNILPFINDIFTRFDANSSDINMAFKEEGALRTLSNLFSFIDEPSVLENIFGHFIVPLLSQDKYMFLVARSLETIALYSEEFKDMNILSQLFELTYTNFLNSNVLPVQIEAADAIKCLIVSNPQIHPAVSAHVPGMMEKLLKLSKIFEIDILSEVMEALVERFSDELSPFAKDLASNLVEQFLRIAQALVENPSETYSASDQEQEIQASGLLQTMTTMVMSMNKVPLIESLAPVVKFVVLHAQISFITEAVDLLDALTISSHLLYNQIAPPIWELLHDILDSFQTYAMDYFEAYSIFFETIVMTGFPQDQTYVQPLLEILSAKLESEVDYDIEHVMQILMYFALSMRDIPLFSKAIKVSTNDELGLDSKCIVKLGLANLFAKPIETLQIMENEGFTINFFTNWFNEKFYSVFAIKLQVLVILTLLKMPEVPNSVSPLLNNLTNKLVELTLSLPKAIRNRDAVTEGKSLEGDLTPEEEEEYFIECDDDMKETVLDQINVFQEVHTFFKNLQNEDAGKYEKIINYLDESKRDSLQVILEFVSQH
The experiment in a line: co-immunoprecipitation, Nb coupled to NHS-agarose beads, lysate of the yeast strain expressing the GFP-tagged target, Western blot anti-GFP. The protocol:
One SXM1-specific Nanobody (30=Nb clone CA17530 corresponding to SEQ ID NO: 18) was characterized by co-immunoprecipitation assays. The SXM1-specific Nanobody was covalently linked to NHS-agarose beads. The beads that were functionalized with this SXM1-specific Nanobody were incubated for an hour at 4° C. on a rotating device with either an EBY100 lysate or the lysate of the engineered Yeast strain expressing SXM1 GFP(+)04, H9) as a GFP-tagged protein. After washing, these beads were resuspended in SDS-PAGE loading dye and analyzed on SDS-PAGE (FIG. 9A). Separated proteins were transferred to a PVDF membrane and the Western blot (FIG. 9B) was developed with GFP-specific antibody to confirm the presence of GFP-tagged SXM1.

Experiment [2] addresses T2, SXM1 (native, from EBY100 lysate) (Saccharomyces cerevisiae, UniProt Q04175 1-944).
T2 construct: mature; Endogenous untagged protein; also called YDR395W
T2 sequence (looked up): T1 sequence (looked up)
As to the kind of experiment: co-IP, Nb on NHS-agarose beads, EBY100 yeast lysate, SDS-PAGE.

The target in experiment [3] is T3, BMH1 (native, from EBY100 lysate) (Saccharomyces cerevisiae, UniProt P29311 2-267).
T3 construct: mature; Endogenous untagged protein; also called YER177W
T3 sequence (looked up): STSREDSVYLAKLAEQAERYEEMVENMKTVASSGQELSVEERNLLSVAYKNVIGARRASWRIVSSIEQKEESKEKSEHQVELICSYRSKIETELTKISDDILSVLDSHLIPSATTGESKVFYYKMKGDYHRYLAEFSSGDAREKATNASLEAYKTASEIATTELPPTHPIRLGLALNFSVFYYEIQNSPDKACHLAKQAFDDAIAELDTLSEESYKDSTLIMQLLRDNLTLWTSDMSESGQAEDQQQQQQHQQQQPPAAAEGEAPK
Described as above.

Experiment [4] has as its target T4, GFP-tagged BMH1 (Saccharomyces cerevisiae, UniProt P29311 2-267).
T4 construct: Yeast GFP Fusion Collection strain; also called Yeast GFP fusion collection GFP(+)27, D5; not shown: GFP tag
T4 sequence (looked up): T3 sequence (looked up)
As to the kind of experiment: co-IP, Nb on NHS-agarose beads, lysate of GFP-fusion yeast strain, SDS-PAGE and anti-GFP Western blot. The source says:
After washing, these beads were resuspended in SDS-PAGE loading dye and analyzed on SDS-PAGE (FIG. 8A). Separated proteins were transferred to a PVDF membrane and the Western blot (FIG. 8B) was developed with GFP-specific antibody to confirm the presence of GFP-tagged targets.
For each target selection of binders in this example, as detailed in Table 2, after 3 rounds of selection by panning using NANEX technology, individual clones were isolated from the enriched sub-library by plating tenfold serial dilutions of the overnight-grown phage-infected E. coli TG1 cells in LB. 96 individual clones were picked and grown in a 96-well plate containing LB supplemented with 100 μg/ml ampicillin. Plasmids containing the Nanobody encoding genes were purified, sequenced and grouped into sequence families (Material and methods). A representative member of each sequence family was selected. Their encoding plasmid was transformed into the E. coli WK6 expression strain to express and purify each Nanobody of interest. […] After washing, these beads were resuspended in SDS-PAGE loading dye and analyzed on SDS-PAGE (as in the Figure specified in Table 2 for each target). […] For each target-specific Nanobody analysed in this way, the co-immunoprecipitation with the EBY100 lysate gives a predominant band corresponding to the expected molecular weight of the target protein. […]
A general note: Immunoblotting shows a protein as a band on a membrane.

The record followed here is US20240287501A1 (VIB VZW, published 2024).

B1: CA17530 (VHH)
VHH: QVQLVESGGGLVQTGGSLRLSCVVSKTLFSINAMAWYRQSPGKPRELVAGWTSGGRTSYGDSVKGRFTISRDNAENTLYLQMNDVKPEDTAVYHCAADYLVVAGKPGYDYAYWGQGTQVTVSS
notes: C-terminal 6xHis-EPEA tag is part of the entry
Take B1: the binding result in experiment [1] and in experiment [2] was “binds” each time.

B2: CA17459 (VHH)
VHH: QVQLVESGGGEVQTGGSLRLSCTASGSRLNFGSWNWYRKRGENYRELVAAMGPSTGHTHYGDSMKGRVTISLNAAKDTLFLQMNSLKPEDTAVYYCAADLDGLGFPRGSFYGMDYWGKGTQVTVSS
notes: as for B1
In the case of B2, the binding result in experiment [3] and in experiment [4] was “binds” each time.
